Marks after values point to notes of the source that are not given here.
Experiments:
des(1-3)IGF-I = molecular target: T1, des(1-3)IGF-I (Homo sapiens, UniProt P05019); assay: BIAcore analysis over des(1-3)IGF-I biosensor surface; assay type: binding; settings: 200 nM, 2-h and 4-h incubations with partially purified azurocidin
T1 construct: IGF-I, IGF-II and des(1-3)IGF-I were immobilized on the sensor chip by amine coupling; purchased GroPep (Adelaide, Australia)
Experimental: Recombinant pIGFBP-1 was analyzed across a des(1-3) IGF-I biosensor surfaces with a concentration range of 50, 100, 200, 400 nM, at a flow rate of 10 μl/min. The mean sensorgrams are shown for 400 nM IGFBP-1 (intact, n=3) and 200 nM IGFBP-1, intact (0 h, n=4) and after 2-h (n=5) and 4-h (n=3) incubations with partially purified azurocidin in a protease:substrate ratio of 1:3 500 for 2 h at 37 C.
(§1) Instrument and reagents (buffers, chemicals for activating and deactivated) were purchased from BIAcore (Uppsala, Sweden). IGF-I, IGF-II and des(1-3)IGF-I were immobilized on the sensor chip by amine coupling and deactivated with 0.1M ethanolamine. A reference flow cell was also prepared to correct for background and bulk refractive index contribution. After equilibration buffer to achieve a stable baseline, binding experiments was at 22 C in 2 separate experiments with the samples injected in random order. 40 μl of each sample was injected over the sensor surface at a rate of 10 μl/min (association period), followed by a 6 min wash with buffer (dissociation period). The sensor surface was regenerated with 20 μl of 100 mM HCl and washed for 6 min before the next sample. We used a 1:1 Langmuir binding interaction model for kinetic analysis using the BIAcore software and GraphPad Prism (GraphPad Software Inc, San Diego, Calif.).

azurocidin = molecular target: T2, azurocidin (Homo sapiens, UniProt P20160); assay: Stability of IGFBP-1 fragments generated in the presence of azurocidin; assay type: biochemical
T2 construct: from tissue
T2 sequence (P20160 27-248): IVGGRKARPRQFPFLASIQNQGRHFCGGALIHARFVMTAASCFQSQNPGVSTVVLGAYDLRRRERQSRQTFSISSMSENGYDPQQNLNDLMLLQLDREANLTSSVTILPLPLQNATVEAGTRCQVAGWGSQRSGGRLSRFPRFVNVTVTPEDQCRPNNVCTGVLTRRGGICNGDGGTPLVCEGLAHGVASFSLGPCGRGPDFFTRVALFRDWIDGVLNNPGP

[1] = system: MCF-7 human breast cancer cells; assay: 3H-Thymidine incorporation; assay type: cell-based
Experimental: Cell studies. MCF-7 human breast cancer cells were maintained in MEM alpha ribonucleic acid-free medium supplemented with 10% foetal bovine serum, 50 Unit/ml penicillin sodium, 50 μg/ml streptomycin sulfate and 2 mM L-glutamine at 37C in 5% CO2 humidified environment.
3H-Thymidine incorporation: Experiments were carried out in 48-well plates, at 70% confluence. After a 20-h incubation in serum-free medium supplemented with 0.1% BSA, the experimental conditions were added for a further 24 h, with ^3H-thymidine (1 μCi/ml) added for the last 4 h. Cells were then washed with ice-cold 0.9% NaCl three times and incubated with ice-cold 5% TCA for 15 min at 22 C. The fixed nucleotides were solubilized in 0.1M NaOH at 22 C and subjected to liquid scintillation counting.
(§2) Statistical analyses. The effect of IGF-II and IGFBP-1 in muscle cell culture was analyzed by two-way ANOVA. Where significant differences were observed, comparisons were made using the Tukey test. In the study using MCF-7 breast cancer cells the Wolcoxon Matched Pairs test was used. Statistical significance was set at P<0.05.

IGF-II = IGF-II (Homo sapiens, UniProt P01344); assay: BIAcore analysis over IGF-II biosensor surface; assay type: binding; parameters: IGF-I, IGF-II and des(1-3)IGF-I were immobilized on the sensor chip by amine coupling; settings: for kd (rate of dissociation, over 261-360 s) / ks (rate of association, over 21-120 s): mean ± SEM
Chain of IGF-II (P01344 25-91 limits assumed): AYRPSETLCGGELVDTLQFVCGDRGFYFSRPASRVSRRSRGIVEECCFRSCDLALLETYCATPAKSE
Experimental: (§3) Recombinant pIGFBP-1 was analyzed across IGF-I (A, C) and IGF-II (B, D) biosensor surfaces. A concentration range of 50, 100, 200, 400 nM was analyzed at a flow rate of 10 μl/min. A,B: Mean sensorgrams for 400 nM IGFBP-1 (intact, n=3) and 200 nM IGFBP-1, intact (0 h, n=4) and after 2-h (n=5) and 4-h (n=3) incubations with partially purified azurocidin in a protease:substrate ratio of 1:3 500 for 2 h at 37 C. C,D: The rate of association (ks), the absolute value of the slope (dRU/dt versus RU) over the linear initial association phase (21-120 s), is shown for pIGFBP-1, intact (closed circles), and after incubation with partially purified azurocidin for 2 h at 37 C (open circles); and
as §1

IGF-I [2] = molecular target: T3, IGF-I (Homo sapiens, UniProt P05019); assay: BIAcore analysis over IGF-I biosensor surface; assay type: binding; parameters: purchased Kabi Pharmacia (Sweden), donated; settings: for kd (rate of dissociation, over 261-360 s) / ks (rate of association, over 21-120 s): mean ± SEM; for predicted maximum response for interaction with IGF-I: based on initial rate of association (21-120 s), proteolysed = 2-h time point
Experimental: as §3, §1
Target sequence in this assay (P05019 49-118 limits assumed): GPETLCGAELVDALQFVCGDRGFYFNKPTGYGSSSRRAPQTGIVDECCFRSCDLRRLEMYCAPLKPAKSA

[3] = system: primary human skeletal myotubes; assay: 2-Deoxyglucose transport (glucose uptake); assay type: cell-based; settings: for effect on glucose uptake alone: absence of exogenous IGF-II, 80 ng/ml
Experimental: Primary human skeletal myotubes were incubated under serum-free conditions for 24 h. Glucose uptake was determined as described in the Methods. The results are the mean±SEM of four experiments using cells from different individuals each with 3 replicates; and are expressed as the percentage of uptake in the absence of IGF-II or IGFBP-1 for each. The effect of IGF-II is shown in the hatched bars. The effect of pIGFBP-1 on stimulation of glucose uptake by 10 ng/ml IGF-II was analyzed by 2-way ANOVA for each of the 20 ng/ml and 80 ng/ml concentrations; *, P<0.01, **, P<0.001, compared to no IGF-II; ††, P<0.001, compared to no IGFBP-1 or intact IGFBP-1.
Human skeletal muscle cells were isolated, with approval from the local Ethics Committee, from the muscle biopsies by trypsin digestion and were grown to confluent myoblasts and differentiated into myotubes as previously described in detail (Bouzakri et al, Diabetes, 52, 1319-1325, 2003). Muscle from 4 different subjects were individually minced before being incubated for 30 min in 5 ml of trypsin-EDTA (Invitrogen, Carlsbad, Calif.) at 37° C. under agitation. After being centrifuged (150 g), the pellet was rinsed several times in PBS. Cells were first preplated for 1 h to eliminate rapidly adherent fibroblasts. The remaining cells were then cultured in a growth medium composed of HAM F-10 supplemented with 20% fetal bovine serum (FBS; Invitrogen Stockholm, Sweden), and 1% antibiotics (Invitrogen Stockholm, Sweden). Cells were plated in 6 wells plates and cultured in growth medium at 37° C. until confluence. Differentiation into myotubes was induced by changing the medium to Dulbecco's modified Eagle's medium supplemented with 2% FBS, and 1% antibiotics.
2-Deoxyglucose transport: Glucose uptake was performed as previously described for primary human muscle cells (Bouzakri et al, Diabetologia, 47, 1314-1323, 2004). After 24-h serum starvation, myotubes were pre-incubated with or without IGF-II (10 ng/ml) and IGF-II+IGFBP-1 (intact or cleaved at 20 or 80 ng/ml) for 90 min. IGF-II and IGFBP-1 were mixed 30 min before the experiments. Cells were then washed four times with pre-warmed buffer (150 mmol/l NaCl, […] KCl, 1.2 mmol/l MgSO4, 1.2 mmol/l CaCL2, 2.5 mmol/l NaH2PO4, 10 mmol/l HEPES, pH 7.4) and glucose uptake was measured for 15 min using [3H]2-deoxyglucose (50 μmol/l, 14,800 Bq/well). Results were expressed as the percentage of glucose uptake in the absence of IGF-II or IGFBP-1.
as §2

IGF-I [4] = molecular target: T3, IGF-I; settings: liver-secreted phosphoprotein, after dephosphorylation; cited from earlier work
Target sequence in this assay (P05019 49-118): as the sequence (P05019 49-118 limits assumed) above

[5] = IGFBP-1 200 nM, proteolysis 2 h
[6] = IGFBP-1 200 nM, proteolysis 2 h by azurocidin
[7] = IGFBP-1 200 nM, proteolysis 4 h
[8] = IGFBP-1 200 nM, proteolysis 4 h by azurocidin
[9] = IGF-I surface, IGFBP-1 200 nM, proteolysis 2 h by azurocidin
[10] = IGF-I surface, IGFBP-1 200 nM, proteolysis 4 h by azurocidin
[11] = IGF-II 10 ng/ml + IGFBP-1 20 or 80 ng/ml
[12] = IGFBP-1 200 nM, proteolysis 0 h
[13] = IGFBP-1 400 nM, proteolysis 0 h
[14] = IGF-I surface, IGFBP-1 200 nM, proteolysis 0 h
[15] = IGF-I surface, IGFBP-1 400 nM, proteolysis 0 h

T1 sequence (P05019 52-118): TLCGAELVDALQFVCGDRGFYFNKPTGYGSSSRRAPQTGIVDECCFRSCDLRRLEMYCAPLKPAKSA

B1: proteolysed IGFBP-1: phosphorylated IGFBP-1 after incubation with partially purified azurocidin (mixture of N- and C-terminal fragments) (protein)
chain 1: APWQCAPCSAEKLALCPPVSASCSEVTRSAGCGCCPMCALPLGAACGVATARCARGLSCRALPGEQQPLHALTRGQGACVQESDASAPHAAEAGSPESPESTEITEEELLDNFHLMAPSEEDHSILWDAI
chain 2: STYDGSKALHVTNIKKWKEPCRIELYRVVESLAKAQETSGEEISKFYLPNCNKNGFYHSRQCETSMDGEAGLCWCVYPWNGKRIPGSPEIRGDPNCQIYFNVQN
des(1-3)IGF-I
  effect of proteolysis on rate of dissociation from des(1-3)IGF-I: clearly increase
azurocidin; 2-h incubation at 45 C
  further degradation of IGFBP-1 fragments: no further degradation
azurocidin; 24-h incubation at 37 C
  further degradation of IGFBP-1 fragments: no further degradation
[1]; IGF-II 10 ng/ml + pIGFBP-1 90 ng/ml, 6 experiments
  IGF-II-stimulated 3H-thymidine incorporation after addition of IGFBP-1: no inhibition
IGF-II; [5]
  kd rel to IGF-I: 2.51^‡
  ks rel to IGF-I: 0.89
IGF-II; [6]
  kd (rate of dissociation, over 261-360 s): 15.99 ± 0.19 ×10^−4 s^−1
  ks (rate of association, over 21-120 s): 15.43 ± 0.58 ×10^−3 s^−1
IGF-II; [7]
  kd rel to IGF-I: 2.39^‡
  ks rel to IGF-I: 1.01
  rel ks (relative to 200 nM intact pIGFBP-1): 2.86*^†
IGF-II; [8]
  kd (rate of dissociation, over 261-360 s): 27.17 ± 0.12 ×10^−4 s^−1
  ks (rate of association, over 21-120 s): 12.80 ± 0.08 ×10^−3 s^−1
IGF-I [2]; [9]
  kd (rate of dissociation, over 261-360 s): 6.40 ± 0.25 ×10^−4 s^−1
  ks (rate of association, over 21-120 s): 17.26 ± 0.49 ×10^−3 s^−1
IGF-I [2]; IGF-I surface, IGFBP-1 200 nM, proteolysis 4 h
  rel ks (relative to 200 nM intact pIGFBP-1): 2.96*^†
IGF-I [2]; [10]
  kd (rate of dissociation, over 261-360 s): 11.36 ± 0.05 ×10^−4 s^−1
  ks (rate of association, over 21-120 s): 12.69 ± 0.08 ×10^−3 s^−1
IGF-I [2]
  predicted maximum response for interaction with IGF-I: 1156±16 RU
[3]; [11]
  effect on IGF-II-stimulated glucose uptake: inhibited in a dose-response manner
[3]; IGF-II 10 ng/ml + IGFBP-1 20 or 80 ng/ml, P<0.001
  inhibitory effect on IGF-II-stimulated glucose uptake compared with intact IGFBP-1: significantly less
[3]
  effect on glucose uptake alone: stimulated glucose uptake

B2: intact pIGFBP-1: recombinant human phosphorylated IGFBP-1, intact (protein)
chain: APWQCAPCSAEKLALCPPVSASCSEVTRSAGCGCCPMCALPLGAACGVATARCARGLSCRALPGEQQPLHALTRGQGACVQESDASAPHAAEAGSPESPESTEITEEELLDNFHLMAPSEEDHSILWDAISTYDGSKALHVTNIKKWKEPCRIELYRVVESLAKAQETSGEEISKFYLPNCNKNGFYHSRQCETSMDGEAGLCWCVYPWNGKRIPGSPEIRGDPNCQIYFNVQN
[1]; without IGF-II, 4 experiments
  inhibition of 3H-thymidine incorporation by pIGFBP-1 alone: 13-33%
IGF-II; [12]
  kd (rate of dissociation, over 261-360 s): 3.48 ± 0.40 ×10^−4 s^−1
  ks (rate of association, over 21-120 s): 4.47 ± 0.78 ×10^−3 s^−1
IGF-II; [13]
  kd (rate of dissociation, over 261-360 s): 3.37 ± 0.02 ×10^−4 s^−1
  ks (rate of association, over 21-120 s): 8.30 ± 0.13 ×10^−3 s^−1
IGF-I [2]; [14]
  kd (rate of dissociation, over 261-360 s): 1.46 ± 0.19 ×10^−4 s^−1
  ks (rate of association, over 21-120 s): 4.29 ± 0.46 ×10^−3 s^−1
IGF-I [2]; [15]
  kd (rate of dissociation, over 261-360 s): 1.45 ± 0.02 ×10^−4 s^−1
  ks (rate of association, over 21-120 s): 8.21 ± 0.14 ×10^−3 s^−1
IGF-I [2]
  predicted maximum response for interaction with IGF-I: 908±79 RU
[3]; [11]
  effect on IGF-II-stimulated glucose uptake: inhibited in a dose-response manner
[3]
  effect on glucose uptake alone: no effect
IGF-I [4]
  reduction of affinity for IGF-I by dephosphorylation: six fold

From patent US20100129344A1, “MEDICAL USES AND THERAPIES BASED UPON THE ACTION OF AZUROCIDIN ON IGFBP-1” (priority 2005, published 2010)
